Test results from paper doi:10.1101/2024.08.28.609967 (bioRxiv, 2024).

T1: GST-TEX264 (28–313aa) (human, UniProt Q9Y6I9 28-313)
T1 construct: TEX264, cytosol-exposed domain, residues 28-313, synthetic gene; also called GST-tagged TEX264; source: E. coli Rosetta pLysS, purified (glutathione beads, SEC); not shown: GST, N-terminal, kept
T1 sequence (looked up): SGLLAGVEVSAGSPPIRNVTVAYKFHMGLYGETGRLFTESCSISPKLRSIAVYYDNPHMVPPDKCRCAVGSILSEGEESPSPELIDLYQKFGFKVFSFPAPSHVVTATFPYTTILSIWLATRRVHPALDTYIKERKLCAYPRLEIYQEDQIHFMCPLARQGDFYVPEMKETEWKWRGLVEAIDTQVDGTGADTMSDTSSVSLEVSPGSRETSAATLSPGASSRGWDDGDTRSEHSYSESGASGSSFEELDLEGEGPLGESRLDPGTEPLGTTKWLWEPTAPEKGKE

T2: CCPG1-GST (1–212aa) (human, UniProt Q9ULG6 1-212)
T2 construct: CCPG1, cytosol-exposed domain, residues 1-212, synthetic gene; also called GST-tagged CCPG1; source: E. coli Rosetta pLysS, purified (glutathione beads, SEC); not shown: GST, C-terminal, kept
T2 sequence (looked up): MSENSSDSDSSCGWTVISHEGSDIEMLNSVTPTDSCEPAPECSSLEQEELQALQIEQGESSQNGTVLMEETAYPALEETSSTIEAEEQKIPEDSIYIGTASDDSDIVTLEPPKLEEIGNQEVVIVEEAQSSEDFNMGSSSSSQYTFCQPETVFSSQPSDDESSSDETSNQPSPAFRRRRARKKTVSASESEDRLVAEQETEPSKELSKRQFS

B1: GFP-tagged ATG13 (191–230aa) (peptide, UniProt O75143 191-230, looked up)
chain: INLAFMSTRQFERTPPIMGIIIDHFVDRPYPSSSPMHPCN
notes: source: E. coli Rosetta pLysS, purified (glutathione beads, TEV cleavage, SEC on S75); not shown: GST, N-terminal, cleaved; EGFP, N-terminal, kept
B2: FUNDC1(1–50aa)-GST (domain or fragment, human, UniProt Q8IVP5 1-50, looked up)
chain: MATRNPPPQDYESDDDSYEVLDLTEYARRHQWWNRVFGHSSGPMVEKYSV
notes: FUNDC1, cytosol-exposed domain, residues 1-50; also called FUNDC1-GST; source: E. coli Rosetta pLysS, purified (glutathione beads, SEC); not shown: GST, C-terminal, kept
B3: GFP-tagged ATG13 IDR (Δ191–205aa) (domain or fragment, UniProt O75143 205-517, looked up)
chain: PPIMGIIIDHFVDRPYPSSSPMHPCNYRTAGEDTGVIYPSVEDSQEVCTTSFSTSPPSQLSSSRLSYQPAALGVGSADLAYPVVFAAGLNATHPHQLMVPGKEGGVPLAPNQPVHGTQADQERLATCTPSDRTHCAATPSSSEDTETVSNSSEGRASPHDVLETIFVRKVGAFVNKPINQVTLTSLDIPFAMFAPKNLELEDTDPMVNPPDSPETESPLQGSLHSDGSSGGSSGNTHDDFVMIDFKPAFSKDDILPMDLGTFYREFQNPPQLSSLSIDIGAQSMAEDLDSLPEKLAVHEKNVREFDAFVETLQ
notes: source: E. coli Rosetta pLysS, purified (glutathione beads, TEV cleavage, SEC); not shown: GST, N-terminal, cleaved; EGFP, N-terminal, kept
B4: GFP-FIP200 C-terminal region (CTR) (residues 1429–1591) (domain or fragment, UniProt Q8TDY2-2 1429-1591, looked up)
chain: ADEGRVDSAMETSMMSVQENIHMLSEEKQRIMLLERTLQLKEEENKRLNQRLMSQSMSSVSSRHSEKIAIRDFQVGDLVLIILDERHDNYVLFTVSPTLYFLHSESLPALDLKPASGASRRPWVLGKVMEKEYCQAKKAQNRFKVPLGTKFYRVKAVSWNKKV
notes: FIP200 (RB1CC1), C-terminal region with the Claw domain and a portion of the coiled-coil, residues 1429-1591; also called GFP-tagged FIP200-CTR; GFP-FIP200(CTR); source: E. coli Rosetta pLysS, purified (His-Trap, TEV cleavage, SEC); not shown: His6, N-terminal, cleaved; GFP, N-terminal, kept
B5: mCherry-tagged ATG13 IDR (191–517aa) (domain or fragment, UniProt O75143 191-517, looked up)
chain: INLAFMSTRQFERTPPIMGIIIDHFVDRPYPSSSPMHPCNYRTAGEDTGVIYPSVEDSQEVCTTSFSTSPPSQLSSSRLSYQPAALGVGSADLAYPVVFAAGLNATHPHQLMVPGKEGGVPLAPNQPVHGTQADQERLATCTPSDRTHCAATPSSSEDTETVSNSSEGRASPHDVLETIFVRKVGAFVNKPINQVTLTSLDIPFAMFAPKNLELEDTDPMVNPPDSPETESPLQGSLHSDGSSGGSSGNTHDDFVMIDFKPAFSKDDILPMDLGTFYREFQNPPQLSSLSIDIGAQSMAEDLDSLPEKLAVHEKNVREFDAFVETLQ
notes: also called mCh-IDR; source: E. coli Rosetta pLysS, purified (His-Trap, SEC); not shown: mCherry, N-terminal, kept
B6: GFP-tagged ATG13 IDR (191–517aa) (domain or fragment, UniProt O75143 191-517, looked up)
chain: B5 chain
notes: Addgene numbers of the GFP-ATG13 constructs are tied to the ranges by their order in the list; also called ATG13 IDR wild-type (WT); source: E. coli Rosetta pLysS, purified (glutathione beads, TEV cleavage, SEC); not shown: GST, N-terminal, cleaved; EGFP, N-terminal, kept
B7: GFP-tagged ATG13 (206–230) (peptide, UniProt O75143 206-230, looked up)
chain: PIMGIIIDHFVDRPYPSSSPMHPCN
notes: ATG13 residues 206-230; also called ATG13 IDR fragment (206–230aa); source: E. coli Rosetta pLysS, purified (glutathione beads, TEV cleavage, SEC on S75); not shown: GST, N-terminal, cleaved; EGFP, N-terminal, kept

What was measured:
Details in all cases: both partners purified
mCherry-WIPI3 = target: T3, mCherry-WIPI3 (UniProt Q5MNZ6 1-344); test: microscopy-based bead assay; GFP-trap agarose beads coated with GFP-tagged bait (ULK1 complex, ATG13/101, FIP200, ULK1 K46I, ATG13 IDR and its fragments or variants; 5 uM), mCherry-tagged WIPI proteins as prey; 25 mM Tris-HCl pH 7.4, 150 mM NaCl, 1 mM DTT; confocal imaging
T3 construct: also called mCherry-tagged WIPI3; source: E. coli Rosetta pLysS, purified (His-Trap, SEC); not shown: mCherry, N-terminal, kept

[1] = target: B4; test: microscopy-based bead assay; as a2 (GFP-FIP200 CTR prey) with kinases TBK1, MBP-ULK1, CK2 or Src (Y530F) and 10 mM MgCl2, 100 uM ATP
GST-TEX264 (28–313aa) = target: T1, GST-TEX264 (28–313aa); test: microscopy-based bead assay; glutathione beads coated with GST-tagged cargo receptors (5 uM), GFP-FIP200 CTR (1429-1591) as prey, 30 min; 25 mM Tris-HCl pH 7.4, 150 mM NaCl, 1 mM DTT; confocal imaging
BCL2L13(1–465aa)-GST = target: T4, BCL2L13(1–465aa)-GST (human, UniProt Q9BXK5 1-465); test: as above
T4 construct: BCL2L13, cytosol-exposed domain, residues 1-465; also called BCL2L13-GST; source: E. coli Rosetta pLysS, purified (glutathione beads, SEC); not shown: GST, C-terminal, kept

CCPG1-GST (1–212aa) = target: T2, CCPG1-GST (1–212aa); test: as above
FKBP8-GST (1–391aa) = target: T5, FKBP8-GST (1–391aa) (human, UniProt Q14318 1-391); test: as above
T5 construct: FKBP8, cytosol-exposed domain, residues 1-391, synthetic gene; also called GST-tagged FKBP8; source: E. coli Rosetta pLysS, purified (glutathione beads, SEC); not shown: GST, C-terminal, kept

GST-FAM134C (250–466aa) = target: T6, GST-FAM134C (250–466aa) (human, UniProt Q86VR2 250-466); test: as above
T6 construct: FAM134C, cytosol-exposed domain, residues 250-466, synthetic gene; also called GST-tagged FAM134C; source: E. coli Rosetta pLysS, purified (glutathione beads, SEC); not shown: GST, N-terminal, kept

GST-WIPI3 = target: T7, GST-WIPI3 (UniProt Q5MNZ6 1-344); test: microscopy-based bead assay; glutathione beads coated with GST-tagged WIPI2d or WIPI3 (5 uM), mCherry-tagged ATG13 constructs as prey; 25 mM Tris-HCl pH 7.4, 150 mM NaCl, 1 mM DTT; confocal imaging
T7 construct: WIPI3 (WDR45B); Addgene numbers are tied to WIPI1/2/3/4 by their order in the list; also called GST-tagged WIPI3; GST-TEV-WIPI3; source: FreeStyle HEK293F cells, transfected, purified (glutathione beads, SEC); not shown: GST, N-terminal, kept
T7 sequence (Q5MNZ6 whole entry): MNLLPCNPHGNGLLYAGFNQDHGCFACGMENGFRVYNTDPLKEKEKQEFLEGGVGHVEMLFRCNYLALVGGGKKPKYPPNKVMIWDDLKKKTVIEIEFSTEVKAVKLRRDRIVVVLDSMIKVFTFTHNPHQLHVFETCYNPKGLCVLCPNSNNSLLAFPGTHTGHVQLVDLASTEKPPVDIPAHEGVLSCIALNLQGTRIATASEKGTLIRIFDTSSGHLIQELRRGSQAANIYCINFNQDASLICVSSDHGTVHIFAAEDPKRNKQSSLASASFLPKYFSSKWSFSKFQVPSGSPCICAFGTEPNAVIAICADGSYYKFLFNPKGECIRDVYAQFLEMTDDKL

T3 sequence (Q5MNZ6 whole entry, the tested form may be a part): as the sequence (Q5MNZ6 whole entry) above
T5 sequence (Q14318 1-391): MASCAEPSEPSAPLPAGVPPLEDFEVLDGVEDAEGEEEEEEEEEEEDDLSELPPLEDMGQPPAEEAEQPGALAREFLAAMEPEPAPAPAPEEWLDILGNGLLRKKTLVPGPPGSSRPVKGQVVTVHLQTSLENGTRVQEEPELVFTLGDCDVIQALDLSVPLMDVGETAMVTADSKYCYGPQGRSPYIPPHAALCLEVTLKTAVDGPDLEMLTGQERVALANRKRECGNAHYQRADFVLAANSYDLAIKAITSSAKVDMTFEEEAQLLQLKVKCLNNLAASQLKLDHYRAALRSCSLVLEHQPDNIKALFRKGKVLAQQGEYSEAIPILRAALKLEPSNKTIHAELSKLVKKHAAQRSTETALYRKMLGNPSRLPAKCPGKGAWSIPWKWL
T6 sequence (Q86VR2 250-466): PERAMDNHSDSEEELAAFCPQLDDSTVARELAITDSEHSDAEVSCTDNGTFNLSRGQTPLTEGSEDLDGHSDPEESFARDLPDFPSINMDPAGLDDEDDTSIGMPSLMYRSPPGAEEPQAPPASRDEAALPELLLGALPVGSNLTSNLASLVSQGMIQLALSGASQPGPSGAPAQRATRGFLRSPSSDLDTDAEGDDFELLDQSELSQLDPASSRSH
T4 sequence (Q9BXK5 1-465): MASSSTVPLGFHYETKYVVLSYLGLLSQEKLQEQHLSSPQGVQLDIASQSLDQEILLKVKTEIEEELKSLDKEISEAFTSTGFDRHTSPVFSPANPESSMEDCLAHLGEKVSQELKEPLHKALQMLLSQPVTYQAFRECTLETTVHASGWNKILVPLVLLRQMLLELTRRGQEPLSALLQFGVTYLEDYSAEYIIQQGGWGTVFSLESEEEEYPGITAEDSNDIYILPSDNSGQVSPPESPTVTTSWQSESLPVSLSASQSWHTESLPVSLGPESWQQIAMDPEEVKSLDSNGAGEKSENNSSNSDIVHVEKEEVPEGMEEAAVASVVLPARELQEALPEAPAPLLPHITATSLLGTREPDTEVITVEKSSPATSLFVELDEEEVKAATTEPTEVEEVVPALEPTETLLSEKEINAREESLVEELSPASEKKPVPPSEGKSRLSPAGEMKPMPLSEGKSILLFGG

Binder: B1
- binding result (mCherry-WIPI3): binds

Binder: B2
- binding result [1]: binds

Binder: B3
- binding result (mCherry-WIPI3): binds

Binder: B4
- binding result (GST-TEX264 (28–313aa)): binds
- binding result (BCL2L13(1–465aa)-GST): binds
- binding result (CCPG1-GST (1–212aa)): binds
- binding result (FKBP8-GST (1–391aa)): binds
- binding result (GST-FAM134C (250–466aa)): binds

Binder: B5
- binding result (GST-WIPI3): binds

Binder: B6
- binding result (mCherry-WIPI3): binds

Binder: B7
- binding result (mCherry-WIPI3): binds
